Data: publication PMC5932363, “Proteinase 3 Interferes With C1q-Mediated Clearance of Apoptotic Cells” (Frontiers in Immunology, 2018)

Molecular target: T1, C1q (complement protein C1q, intact) (human, UniProt P02745 23-245; P02746 28-253; P02747 29-245)
T1 construct: complement C1q subunit A, human; C1q purified from human serum; a hexamer of heterotrimers; complement C1q subunit B, human; complement C1q subunit C, human; also called intact C1q; whole C1q; source: purified from human serum; copies: 6 + 6 + 6
T1 sequence (P02745 23-245, chain 1 of 3): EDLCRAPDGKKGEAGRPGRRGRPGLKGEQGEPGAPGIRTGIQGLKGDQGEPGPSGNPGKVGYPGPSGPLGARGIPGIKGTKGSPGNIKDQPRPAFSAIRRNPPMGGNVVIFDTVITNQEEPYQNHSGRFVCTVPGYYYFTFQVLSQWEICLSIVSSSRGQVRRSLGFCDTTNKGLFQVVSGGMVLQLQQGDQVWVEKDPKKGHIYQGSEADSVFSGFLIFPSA
T1 sequence (P02746 28-253, chain 2 of 3): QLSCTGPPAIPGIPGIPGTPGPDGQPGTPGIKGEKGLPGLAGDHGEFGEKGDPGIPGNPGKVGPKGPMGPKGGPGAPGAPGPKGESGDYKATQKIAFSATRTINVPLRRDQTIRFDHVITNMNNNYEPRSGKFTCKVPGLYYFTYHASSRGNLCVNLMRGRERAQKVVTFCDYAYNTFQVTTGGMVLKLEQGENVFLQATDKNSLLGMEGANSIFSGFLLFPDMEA
T1 sequence (P02747 29-245, chain 3 of 3): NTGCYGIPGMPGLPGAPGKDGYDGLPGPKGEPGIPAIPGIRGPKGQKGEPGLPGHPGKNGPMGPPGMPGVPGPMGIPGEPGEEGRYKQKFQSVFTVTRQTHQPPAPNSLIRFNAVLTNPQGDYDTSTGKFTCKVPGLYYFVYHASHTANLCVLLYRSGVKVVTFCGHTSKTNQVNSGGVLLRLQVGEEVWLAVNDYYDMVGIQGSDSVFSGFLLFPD
Assay: SPR; BIAcore 3000; PR3 immobilised on a CM5 chip by amine coupling; C1q, gC1q or cC1q as soluble analytes; 50 mM Tris, 150 mM NaCl, 2 mM Ca2+, 0.005% surfactant P20, pH 7.4; flow 20 µl/min; global fit to a 1:1 Langmuir model; apparent KD from koff/kon
Conditions: both partners purified

Kd: 190 nM
koff: 0.00151 s⁻¹
kon: 7800 M⁻¹ s⁻¹
B1: Proteinase 3 (PR3), purified (enzyme, UniProt P24158 28-248, looked up)
chain: IVGGHEAQPHSRPYMASLQMRGNPGSHFCGGTLIHPSFVLTAAHCLRDIPQRLVNVVLGAHNVRTQEPTQQHFSVAQVFLNNYDAENKLNDVLLIQLSSPANLSASVATVQLPQQDQPVPHGTQCLAMGWGRVGAHDPPAQVLQELNVTVVTFFCRPHNICTFVPRRKAGICFGDSGGPLICDGIIQGIDSFVIWGCATRLFPDFFTRVALYVDWIRSTLR
notes: proteinase 3 (myeloblastin), neutrophil-derived serine protease; also called purified PR3; immobilized PR3; source: bought: Athens Research and Technology
